From article PMC3077247

Biological target: HECT domain of Nedd4, Y605A (as used for SPR) (UniProt P46934)
Assay: SPR

HECT domain of Nedd4, Y605A (as used for SPR), sequence (P46934 938-1319 Y1024A): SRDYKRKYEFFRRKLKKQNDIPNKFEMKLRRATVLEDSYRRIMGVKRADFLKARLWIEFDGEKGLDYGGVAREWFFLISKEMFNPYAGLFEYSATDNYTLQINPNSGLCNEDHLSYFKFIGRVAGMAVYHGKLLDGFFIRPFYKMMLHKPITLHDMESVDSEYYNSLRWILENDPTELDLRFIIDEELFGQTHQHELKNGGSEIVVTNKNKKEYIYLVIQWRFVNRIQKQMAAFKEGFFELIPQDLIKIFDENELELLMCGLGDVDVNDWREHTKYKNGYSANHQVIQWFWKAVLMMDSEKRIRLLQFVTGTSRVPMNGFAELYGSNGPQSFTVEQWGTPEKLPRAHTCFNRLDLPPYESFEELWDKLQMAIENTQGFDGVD

For “ubiquitin (monomeric) (from UniProt P0CG48 1-76) (natural protein)”, which fold decrease in binding against wild-type HECT^Nedd4 is on record?
The fold decrease in binding against wild-type HECT^Nedd4 was 20 fold.
